Results reported in article PMC10180619 (Nature Communications, 2023).

Key:
[1] = molecular target: SARS-CoV-2 Beta receptor binding domain (SARS-CoV-2, Beta variant (B.1.351), K417N | E484K | N501Y, biotin (EZ-Link Sulfo-NHS-LC-Biotin, average of four biotins per RBD molecule)); test: BLI; settings: both partners purified
[2] = molecular target: SARS-CoV-2 Delta receptor binding domain (SARS-CoV-2, Delta variant (B.1.617.2), L452R | T478K, biotin (EZ-Link Sulfo-NHS-LC-Biotin, average of four biotins per RBD molecule)); test: BLI; settings: both partners purified

B1: ADI-81654 (Fab, V domains shown)
VH: QVQLKQSGPTLVKPTQTLTLTCTFSGFSLSTYGVGVGWIRQPPGKALEWLALIYYDDDKRYSPSLKSRLTITKDTSQNQVVLTMTNMDPVDTATYYCARHTIATIFDFDSWGQGTLVTVSS
VL: QSVLTQPASVSGSPGQSITISCTGTSSDVGGHNYVSWYQQHPGKAPKLMIYEVSNRPSGVSNRFSGSKSGNTASLTISGLQAEDEADYSCSSYASSTSPVVFGGVTKLTVL
Which results are given for B1?
Kd [1]: 2.56 nM; Kd [2]: 1.83 nM
